Experimental data reported in patent US12098164 (KOREA UNIVERSITY RESEARCH AND BUSINESS FOUNDATION, dated 2024).

Target: human serum albumin (HSA) (human, UniProt P02768 25-609)
Assay: ELISA, HSA coated at 2 ug/ml, anti-His tag primary antibody and HRP secondary antibody, absorbance at 450 nm

Sequence of human serum albumin (HSA) (P02768 25-609 limits assumed): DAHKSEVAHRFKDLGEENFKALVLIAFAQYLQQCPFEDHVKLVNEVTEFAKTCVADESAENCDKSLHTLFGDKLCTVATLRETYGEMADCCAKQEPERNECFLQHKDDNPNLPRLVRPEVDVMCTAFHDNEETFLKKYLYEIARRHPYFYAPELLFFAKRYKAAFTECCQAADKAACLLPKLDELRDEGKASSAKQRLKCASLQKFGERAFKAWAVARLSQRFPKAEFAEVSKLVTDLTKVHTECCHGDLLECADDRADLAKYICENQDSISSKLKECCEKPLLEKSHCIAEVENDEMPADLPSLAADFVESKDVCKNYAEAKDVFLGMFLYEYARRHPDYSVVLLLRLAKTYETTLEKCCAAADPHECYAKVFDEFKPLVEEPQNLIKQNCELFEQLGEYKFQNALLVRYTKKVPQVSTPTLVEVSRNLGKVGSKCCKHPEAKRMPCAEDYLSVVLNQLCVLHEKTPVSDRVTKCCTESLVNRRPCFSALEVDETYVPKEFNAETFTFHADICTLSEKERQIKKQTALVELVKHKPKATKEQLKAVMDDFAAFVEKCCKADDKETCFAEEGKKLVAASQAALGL

B1: hepatitis B virus capsid protein nanoparticles (HBVC) (other)
chain: HHHHHHDIDPYKEFGASVELLSFLPSDFFPSIRDLLDTASALYREALESPEHCSPHHTALRQAILCWGELMNLATWVGSNLEDPASRELVVSYVNVNMGLKIRQLLWFHISCLTFGRETVLEYLVSFGVWIRTPPAYRPPNAPILSTLPETTVV
notes: also called HBVC (aff-, ABP-)
  binding result: no binding (tested: 0.001 to 1.5 mg/ml tested)
